Starred links: 1 amine or outer side, 2 acyl side, 3 side chain; linkers in the order of their positions; H or OH if unused. Positions of bridges follow the written chain, without caps; N, C: chain ends. Non-standard residues stand in square brackets, D forms with d. Groups on a side chain read outwards from the residue. *: point of attachment. KCOpipzaa = N6-(4-(carboxymethyl)piperazine-1-carbonyl)-L-lysine, O=C(NCCCC[C@H](N[*:1])C(=O)[*:2])N1CCN(CC(=O)[*:3])CC1; A4pipaa = 4-amino-1-(carboxymethyl)piperidine-4-carboxylic acid, O=C(C1(N[*:1])CCN(CC(=O)[*:3])CC1)[*:2]; Trp(1-CH2CO) = O=C([C@H](Cc1cn(CC(=O)[*:3])c2ccccc12)N[*:1])[*:2]; Trp(5-OMe) = COc1ccc2[nH]cc(C[C@H](N)C(=O)O)c2c1; Trp(5-OH) = N[C@@H](Cc1c[nH]c2ccc(O)cc12)C(=O)O; C16 diacid = O=C(O)CCCCCCCCCCCCCCC(=O)*; NMeK = CN[C@@H](CCCCN)C(=O)O; Aib = CC(C)(N)C(=O)O; Sar = CNCC(=O)O

The results in this text go back to US20250332264A1, “GhR-BINDING PEPTIDE AND COMPOSITION COMPRISING SAME” (priority 2021, published 2025).

This assay addresses T1, Recombinant human GhR-Fc protein (R&D Systems) (human, UniProt P10912 19-264, limits assumed).
T1 construct: Bought from R&D Systems; Amine-coupled to a CM5 chip in the SPR assay; also called hGhR; recombinant human GhR protein fused to Fc portion of human IgG; not shown: Fc portion of human IgG
T1 sequence (looked up): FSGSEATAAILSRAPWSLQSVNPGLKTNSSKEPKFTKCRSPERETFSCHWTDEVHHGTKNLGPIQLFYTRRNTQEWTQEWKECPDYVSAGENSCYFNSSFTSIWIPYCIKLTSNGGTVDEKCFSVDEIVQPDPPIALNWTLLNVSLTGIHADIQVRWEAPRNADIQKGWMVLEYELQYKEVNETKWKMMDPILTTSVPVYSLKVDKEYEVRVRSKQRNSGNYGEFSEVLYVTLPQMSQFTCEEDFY
The experiment in a line: SPR, Biacore T200, single-cycle kinetics, GhR-Fc immobilised on CM5. The procedure:
SPR assay was performed using Biacore T200 (cytiva: Former GE Healthcare). After the equilibration of Series S Sensor Chip CM5 (produced by cytiva: Former GE Healthcare) with Running Buffer (HBS-EP with 1% (v/v) DMSO), an EDC/NHS mixture was injected at a flow rate of 10 μL/min for 7 minutes to thereby activate the functional groups on sensor chip. Recombinant human GhR-Fc protein (R&D Systems) in 10 mM Acetate (pH4.0) was injected immobilized to at a flow rate of 5 μL/min. It took 7 minutes to immobilize the GhR on the substrate surfaces of the sensor chip. Then Ethanolamine was injected at a flow rate of 10 μL/min for 7 minutes. 1M Ethanolamine (aq.) was injected at a flow rate of 10 μL/min for 420 seconds for capping. 10 mM Peptides in DMSO were diluted to obtain 10 uM with Running Buffer, and prepared 100 nM, 50 nM, 25 nM, 10 nM, 5 nM of each peptide solutions (Peptide Samples).
Using these Peptide Samples, kinetics of peptides against human GhR-Fc protein were measured. The method adopted for sample measurement was a single-cycle kinetics method. The analysis was conducted using the evaluation software provided with Biacore T200. A DMSO correction curve obtained by solvent correction measurements was applied for the analysis. Kinetics fitting was done on the difference data obtained by subtracting the baseline data from sample measurement data. KD values were calculated based on the association rate constant (ka) and dissociation rate constant (kd).

Consider {CH2CO}-Y[NMeK]VVSN[Trp(1-CH2CO)]YK[Trp(5-OH)][Aib]VCG-NH2 (thioether N-13; lactam 2-7 via P, also called Compound No. 4) [GhR_PD_142], for which the Kd was determined as 1.07 nM.

B1: GhR_PD_205 (peptide)
peptide: {CH2CO}-YKVVSN[Trp(5-OMe)]YK[Trp(5-OH)][A4pipaa]VC-NH2
modifications: thioether N-13; not fully specified (residue 2); also: albumin binder E-4IPhpCO, attachment site not given here
notes: No linker; also called Compound No. 45
On to B1, for which the Kd was 3.36 nM. On to {CH2CO}-Y[NMeK]VVSN[Trp(1-CH2CO)]YK[Trp(5-OH)][Aib]VCG-NH2 (thioether N-13; lactam 2-7 via Sar, also called Compound No. 3) [GhR_PD_141], for which the dissociation constant Kd stood at 1.71 nM.

As for {CH2CO}-Y[NMeK]VVSN[Trp(1-CH2CO)]Y[KCOpipzaa][Trp(5-OH)][Aib]VCK([Glu-Glu-C16 diacid])-NH2 (thioether N-13; lactam 2-7, also called Compound No. 27) [GhR_PD_234], the Kd came to 1.79 nM.
